What all share (assay): split reporter (BiFC, NanoBiT)
Assay [1] has as its target GLRaV-3 silencing suppressor p20B, BiFC fusion (grapevine leafroll-associated virus 3 (isolate GP18)).
Assay [2] concerns the target GLRaV-3 coat protein (CP), BiFC fusion (grapevine leafroll-associated virus 3 (isolate GP18)).
In assay [3] the target is GLRaV-3 heat shock protein 70 homolog (HSP70h), BiFC fusion (grapevine leafroll-associated virus 3 (isolate GP18)).
The target in assay [4] is GLRaV-3 transmembrane movement protein p5, BiFC fusion (grapevine leafroll-associated virus 3 (isolate GP18)).

As for “GLRaV-3 coat protein (CP), BiFC fusion (natural protein)”, the average MI diff in assay [1] stood at 55.7; in assay [2], 27.

On to “GLRaV-3 heat shock protein 70 homolog (HSP70h), BiFC fusion (natural protein)”, for which the average MI diff in assay [1] came to 45.5; in assay [3], 51.8; in assay [2], 34.6.

As for “GLRaV-3 minor coat protein (CPm), BiFC fusion (natural protein)”, the average MI diff in assay [1] came out at 27.2.

“GLRaV-3 silencing suppressor p20B, BiFC fusion (natural protein)” registered an average MI diff in assay [1] of 92.7.

For “GLRaV-3 transmembrane movement protein p5, BiFC fusion (natural protein)”, in assay [4], the average MI diff was 114.

Values taken from paper PMC9865355.
